Biological target: T1, Recombinant wild-type human ubiquitin (human, UniProt P0CG48 1-76)
T1 construct: ubiquitin, human, wild type; C-terminal residue G76; 15N labelled in some NMR experiments; In the rows of assays a1, a4 and a5 it is covalently linked by G76 to K117 of m1 (the conjugate is m3); also called free ubiquitin; mono-ubiquitin; source: recombinant, purified by anion exchange followed by gel filtration
Test: NMR titration; 15N ubiquitin (50 μM) titrated with unlabeled JosK117-onlyW87R or its mono-ubiquitinated form to a maximum of 2 equivalents; 20 mM Na phosphate pH 6.5, 2 mM DTT, 25°C
Details: both partners purified

B1: W87R mutant of JosK117-only (domain or fragment, UniProt P54252 1-182, looked up)
chain: MESIFHERQEGSLCAQHCLNNLLQGEYFSPVELSSIAHQLDEEERMRMAEGGVTSEDYRTFLQQPSGNMDDSGFFSIQVISNALRVRGLELILFNSPEYQRLRIDPINERSFICNYKEHWFTVRRLGRQWFNLNSLLTGPELISDTYLALFLAQLQQEGYSIFVVRGDLPDCEADQLLQMIR
notes: ataxin-3, N-terminal Josephin domain, amino acids 1-182; K8, 85, 125, 128 and 166 mutated to arginine, and W87R (site 2); also called JosK117-onlyW87R; JosK117-only W87R; source: recombinant; mutant prepared with QuickChange Site-Directed Mutagenesis kit
binding result: binds

— article PMC4428445 (Frontiers in Molecular Biosciences, 2015)
